This is an account of results in paper doi:10.64898/2025.12.08.693079.

Test [1] deals with purified 20S core peptidase (CP) (S. cerevisiae) (UniProt P21242). Briefly: Suc-LLVY-AMC peptidase activity titration.
Test [2] has the same target. Briefly: NADH-coupled ATPase displacement assay.

UniProt P21242, sequence (P21242 whole entry, looked up): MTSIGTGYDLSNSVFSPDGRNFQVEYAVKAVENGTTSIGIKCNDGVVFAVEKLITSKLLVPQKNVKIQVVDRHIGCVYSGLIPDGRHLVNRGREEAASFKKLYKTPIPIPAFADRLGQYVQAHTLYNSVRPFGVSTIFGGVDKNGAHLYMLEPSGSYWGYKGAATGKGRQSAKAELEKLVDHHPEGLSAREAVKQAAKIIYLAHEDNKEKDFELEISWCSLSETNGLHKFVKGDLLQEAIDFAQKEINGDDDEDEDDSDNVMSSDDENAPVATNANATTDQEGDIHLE

Take “3x-Flag-tagged Blm10 (from UniProt P43583 1-2143) (natural protein)”: the Kd in test [1] is 0.065 µM. In test [2], this substance came in with an IC50 of 3 µM.
